Source: patent US20170100354A1

Biological target: H4 tail (residues 1-30) of the acetyl reporter protein (H4ac indicator)
Assay: cell-based or functional assay

% of cells discriminated from auto fluorescence (FACS), H4ac indicator, 1 µM SAHA: 5% | % of cells discriminated from auto fluorescence (FACS), H4ac indicator, 2.5 µM SAHA: 20% | % of cells discriminated from auto fluorescence (FACS), H4ac indicator, 7.5 µM SAHA: 40% | % of cells discriminated from auto fluorescence (FACS), H4ac indicator, 10 µM SAHA: 45%
Sequence: TATA binding protein (TBP)-associated factor II (TAFII) bromodomain of the H4ac indicator
